From paper PMC6873181
Like-named read-outs stand apart in the source and are kept apart here.

Key:
Settings in all cases: ligand
[1] = molecular target: human IGF-1 receptor (human) (UniProt P08069)
[2] = molecular target: human insulin receptor isoform A (human) (UniProt P06213)
[3] = molecular target: human insulin receptor isoform A (human) (UniProt P06213); remark: listed apart in the source
[4] = molecular target: human IGF-1 receptor (human) (UniProt P08069); remark: listed apart in the source
[5] = molecular target: human insulin receptor isoform A (human) (UniProt P06213); remark: listed apart in the source
[6] = molecular target: human IGF-1 receptor (human) (UniProt P08069); remark: listed apart in the source
[7] = molecular target: human IGF-1 receptor (human) (UniProt P08069); remark: listed apart in the source
[8] = molecular target: human insulin receptor isoform A (human) (UniProt P06213); remark: listed apart in the source
[9] = molecular target: human IGF-1 receptor (human) (UniProt P08069); remark: listed apart in the source
[10] = molecular target: human insulin receptor isoform A (human) (UniProt P06213); remark: listed apart in the source

UniProt P06213, sequence (P06213 other isoform, or with tags, fused parts or gaps): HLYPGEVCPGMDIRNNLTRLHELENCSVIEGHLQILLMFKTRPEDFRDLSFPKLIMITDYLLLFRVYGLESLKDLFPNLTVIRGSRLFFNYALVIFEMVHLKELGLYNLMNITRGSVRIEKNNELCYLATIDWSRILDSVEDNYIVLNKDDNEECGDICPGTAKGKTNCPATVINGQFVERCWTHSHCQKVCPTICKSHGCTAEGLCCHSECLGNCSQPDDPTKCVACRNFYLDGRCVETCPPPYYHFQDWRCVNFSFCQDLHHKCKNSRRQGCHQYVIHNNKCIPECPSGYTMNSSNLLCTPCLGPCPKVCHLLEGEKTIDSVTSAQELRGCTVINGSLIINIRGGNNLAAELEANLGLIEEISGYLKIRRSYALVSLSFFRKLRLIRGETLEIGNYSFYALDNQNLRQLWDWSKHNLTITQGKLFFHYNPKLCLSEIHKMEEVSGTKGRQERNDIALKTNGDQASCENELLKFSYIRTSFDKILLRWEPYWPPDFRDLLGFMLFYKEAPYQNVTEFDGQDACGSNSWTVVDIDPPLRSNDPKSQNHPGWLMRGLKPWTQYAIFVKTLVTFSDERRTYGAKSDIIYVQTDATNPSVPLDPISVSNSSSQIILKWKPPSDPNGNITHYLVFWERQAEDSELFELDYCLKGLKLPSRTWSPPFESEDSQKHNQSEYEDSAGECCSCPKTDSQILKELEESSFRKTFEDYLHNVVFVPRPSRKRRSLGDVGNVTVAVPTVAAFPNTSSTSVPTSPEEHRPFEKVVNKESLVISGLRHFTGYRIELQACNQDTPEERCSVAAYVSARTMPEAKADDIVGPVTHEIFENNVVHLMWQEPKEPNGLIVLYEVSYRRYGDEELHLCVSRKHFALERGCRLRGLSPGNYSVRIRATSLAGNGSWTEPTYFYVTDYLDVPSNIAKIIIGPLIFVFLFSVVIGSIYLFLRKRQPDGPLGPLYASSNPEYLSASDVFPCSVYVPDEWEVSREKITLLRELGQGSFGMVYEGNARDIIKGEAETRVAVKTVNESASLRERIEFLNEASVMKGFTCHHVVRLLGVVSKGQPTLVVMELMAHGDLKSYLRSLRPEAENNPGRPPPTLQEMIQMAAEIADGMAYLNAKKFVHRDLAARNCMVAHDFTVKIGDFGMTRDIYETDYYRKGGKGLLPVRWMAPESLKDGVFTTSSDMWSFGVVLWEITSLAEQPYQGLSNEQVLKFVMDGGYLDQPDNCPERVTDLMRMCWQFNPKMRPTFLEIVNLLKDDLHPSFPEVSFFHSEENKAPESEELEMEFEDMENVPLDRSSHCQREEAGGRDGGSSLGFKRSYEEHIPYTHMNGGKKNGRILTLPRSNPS

## Asp-57–IGF-2 (from UniProt P01344 49-115)
[1]
  Kd: 0.5 nM
[2]
  Kd: 2.96 nM

## His-50–IGF-2 (from UniProt P01344 49-115)
[3]
  Kd: 2.1 nM
[4]
  Kd: 1.6 nM

## His-53–IGF-2 (from UniProt P01344 49-115)
[5]
  Kd: 4.1 nM
[6]
  Kd: 1.2 nM

## Thr-50–IGF-2 (from UniProt P01344 49-115)
[7]
  Kd: 0.84 nM
[8]
  Kd: 2.7 nM

## Val-53–IGF-2 (from UniProt P01344 49-115)
[9]
  Kd: 1.5 nM
[10]
  Kd: 2.9 nM
